This note sets out measurements from US20080119424A1 (published 2008).

The target of test [1] is T1, endogenous RARα (Retinoic Acid Receptor alpha) of mouse cells (mouse (endogenous in mouse embryonic …, UniProt P11416 1-462, limits assumed)).
T1 construct: Endogenous protein detected by immunoblot with anti-RARα (C-20)
T1 sequence (looked up): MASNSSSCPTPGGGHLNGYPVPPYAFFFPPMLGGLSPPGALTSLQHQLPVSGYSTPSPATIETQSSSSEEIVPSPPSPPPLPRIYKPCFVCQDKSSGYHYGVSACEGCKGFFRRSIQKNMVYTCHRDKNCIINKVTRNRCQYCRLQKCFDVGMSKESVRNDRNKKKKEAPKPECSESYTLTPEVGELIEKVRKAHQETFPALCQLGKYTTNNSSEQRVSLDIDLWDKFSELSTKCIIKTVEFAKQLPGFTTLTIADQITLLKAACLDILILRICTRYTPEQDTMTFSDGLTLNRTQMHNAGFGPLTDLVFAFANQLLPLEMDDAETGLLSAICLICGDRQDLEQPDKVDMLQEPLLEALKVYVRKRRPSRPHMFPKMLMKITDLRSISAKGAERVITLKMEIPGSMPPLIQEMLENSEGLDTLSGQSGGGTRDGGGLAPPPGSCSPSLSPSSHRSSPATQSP
Nature of the test: co-immunoprecipitation, immunoblot for RARα. In general terms: A western blot detects proteins with antibodies after separation by electrophoresis.
Procedure: Proteins were transferred to polyvinylidine difluoride membranes (Immobilon P, Millipore) and Western blots were probed with the indicated antibodies. For TAP (co-)immunoprecipitations cells were lysed in ELB buffer (0.25 M NaCl, 0.1% NP-40, 50 mM HEPES pH 7.3) supplemented with protease inhibitors and PMSF.

The target of another test is T2, VP16-RARα LBD (UniProt P10276 154-462).
T2 construct: domain: LBD
T2 sequence: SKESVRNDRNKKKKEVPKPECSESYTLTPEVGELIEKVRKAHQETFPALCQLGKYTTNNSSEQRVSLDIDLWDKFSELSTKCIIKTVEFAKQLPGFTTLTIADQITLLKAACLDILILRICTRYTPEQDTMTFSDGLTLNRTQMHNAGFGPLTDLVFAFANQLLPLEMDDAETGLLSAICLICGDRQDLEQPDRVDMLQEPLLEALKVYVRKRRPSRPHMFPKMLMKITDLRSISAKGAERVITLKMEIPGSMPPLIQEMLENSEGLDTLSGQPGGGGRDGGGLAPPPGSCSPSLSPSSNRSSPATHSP
Nature of the test: mammalian two-hybrid assay (luciferase) in the presence of RA.

Changes are numbered by the printed parent chain.

B1: TAP-PRAME-LREVV mutant protein (other)
chain: MERRRLRGSIQSRYISMSVWTSPRRLVELAGQSLLKDEALAIAALELLPRELFPPLFMAAFDGRHSQTLKAMVQAWPFTCLPLGVLMKGQHLHLETFKAVLDGLDVLLAQEVRPRRWKLQVLDLRKNSHQDFWTVWSGNRASLYSFPEPEAAQPMTKKRKVDGLSTEAEQPFIPVEVLVDLFLKEGACDELFSYLIEKVKRKKNVLRLCCKKLKIFAMPMQDIKMILKMVQLDSIEDLEVTCTWKLPTLAKFSPYLGQMINLRRLLLSHIHASSYISPEKEEQYIAQFTSQFLSLQCLQALYVDSLFFLRGRLDQLLRHVMNPLETLSITNCRLSEGDVMHLSQSPSVSQLSVLSLSGVMLTDVSPEPLQALLERASATLQDLVFDECGITDDQLLALLPSLSHCSQLTTLSFYGNSISISALQSLLQHLIGLSNLTHVLYPVPLESYEDIHGTLHLERLAYLHARLREVVCELGRPSMVWLSANPCPHCGDRTFYDPEPILCPCFMPN
notes: not shown: TAP tag
With B1, the binding result in test [1] was “no binding”.

B2: PRAME-ΔLXXLL (other)
chain: B1 chain with L107V, L108V, L262V, L316V, L317V, L369V, L398V, L399V, L426V, L427V
notes: also called PRAME mutant in which all 7 NR boxes were mutated
On to B2, for which the binding result in test [1] is on record as “no binding”.

B3: Gal4-… (416-509) (other, not shown: large carriers; small tags and cut ends)
chain: NSISISALQSLLQHLIGLSNLTHVLYPVPLESYEDIHGTLHLERLAYLHARLREVVCELGRPSMVWLSANPCPHCGDRTFYDPEPILCPCFMPN
notes: also called box 7 mutant
Regarding B3, the binding result with VP16-RARα LBD was “no binding”.
